# Data published in patent US20260008815A1, “CYCLIC PEPTIDE OR SALT THEREOF, AND USES THEREOF” (FUJIFILM Corporation, priority 2023, published 2026).
# Numbered stars: 1 amine (or outer) side, 2 acyl side, 3 side chain; on linkers, the order of the positions; unused ones are H or OH. Bridge positions count the residues as written; N and C are the ends. Square brackets hold non-standard residues; d marks the D form. Primed or numbered codes have the meaning given here. Ends that are not written are not given here. acetyl″ = bridging -C(=O)-CH2- from a haloacetyl (chloroacetyl) group on the side-chain amine of K/Orn/Dab/Dap, the thiol sulfur replaces the halogen on its CH2 (X(acetyl) notation); acetyl = acetyl (haloacetyl before ring closure) on the side-chain amine, O=C(C[*:1])[*:2]; COCH2 = acetyl group that carries the bridge; hCys = N[C@@H](CCS)C(=O)O
# Molecular target: T1, Recombinant Human FGFR2 alpha (IIIc) Fc Chimera Protein (Homo sapiens, UniProt P21802)
# T1 construct: Fc (chimera); purchased R&D systems 712-FR-050
# Experiment: ELISA binding affinity of enzymatically synthesized peptide to FGFR
# Conditions: ELISA luminescence signal at 10 nmol/L peptide, SEQ ID NO: 47 at 10 nmol/L standardized to 1; enzyme synthesis product
# Procedure, shortened: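 FGFR2 alpha (IIIc) Fc chimera (5 ng/well) was immobilized, and Myc-tagged peptide was bound 3 h at room temperature, then detected with anti-Myc antibody (2 h) and chemiluminescent substrate. Signal was corrected against FGFR-free wells. Score A–D was the luminescence at 10 nmol/L peptide, normalized to cyclic peptide SEQ ID NO: 47.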
# T1 sequence (P21802 with tags, fused parts or gaps limits assumed): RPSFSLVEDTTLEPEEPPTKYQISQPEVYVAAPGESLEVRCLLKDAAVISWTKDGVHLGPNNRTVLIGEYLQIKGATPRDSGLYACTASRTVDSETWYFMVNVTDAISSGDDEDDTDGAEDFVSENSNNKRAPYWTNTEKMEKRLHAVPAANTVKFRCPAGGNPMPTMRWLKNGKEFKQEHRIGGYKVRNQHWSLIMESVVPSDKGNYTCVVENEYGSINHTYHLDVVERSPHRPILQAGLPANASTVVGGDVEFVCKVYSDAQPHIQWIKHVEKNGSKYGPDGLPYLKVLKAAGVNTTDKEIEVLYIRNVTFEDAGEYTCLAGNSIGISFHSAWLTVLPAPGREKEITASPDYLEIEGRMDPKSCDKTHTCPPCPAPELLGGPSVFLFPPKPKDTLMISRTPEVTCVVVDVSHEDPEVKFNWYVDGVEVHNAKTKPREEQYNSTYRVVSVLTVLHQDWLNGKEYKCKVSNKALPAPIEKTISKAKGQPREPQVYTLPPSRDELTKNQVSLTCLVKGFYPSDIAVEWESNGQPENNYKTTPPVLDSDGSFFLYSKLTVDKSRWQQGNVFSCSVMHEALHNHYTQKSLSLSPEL
row,Molecule,Evaluation result of binding affinity to FGFR
1,282 (YCEENYLDPEQYQYFWYFK(COCH2)Y; thioether 2-19) [compound 282],A (0.7 or more)
2,426 (PCDPLNLQQWYTAVYQLWHK(COCH2)R; thioether 2-20 via acetyl) [compound 426],C (0.1 or more and less than 0.5)
3,117 (LCRNYINPQQWRYFALYK(COCH2)N; thioether 2-18 (inferred)) [compound 117],A (0.7 or more)
4,377 (HCLHYLYQYLYTVK(COCH2)Y; thioether 2-14 (inferred)) [compound 377],C (0.1 or more and less than 0.5)
5,382 (PCDRQLYYLYQYIHK(COCH2)T; thioether 2-15 (inferred)) [compound 382],C (0.1 or more and less than 0.5)
6,149 (RCEENYLDPEQYQYFIYFKY; Description of Artificial Sequence: Cyclic peptide) [compound 149],A (0.7 or more)
7,274 (YCEENYLDPEQYQHFIYFK(COCH2)Y; thioether 2-19) [compound 274],C (0.1 or more and less than 0.5)
8,328 (YCEENYLAPEQYQYFIYFK(COCH2)Y; thioether 2-19 (inferred)) [compound 328],A (0.7 or more)
9,188 (YCEENWLDPEQYQYFIYFK(COCH2)Y; thioether 2-19 (inferred)) [compound 188],A (0.7 or more)
10,310 (YCEENYLDPEQYQYFIYFK(COCH2)I; thioether 2-19 (inferred)) [compound 310],A (0.7 or more)
11,410 (WCQESSNYLAPLQWYFFNWYK(COCH2)T; thioether 2-21 (inferred)) [compound 410],A (0.7 or more)
12,336 (YCKENYLDPEQYQYFIYFK(COCH2)Y; thioether 2-19 (inferred)) [compound 336],A (0.7 or more)
13,216 (YCEENYLSPEQYQYFIYFK(COCH2)Y; thioether 2-19 (inferred)) [compound 216],A (0.7 or more)
14,147 (DCEENYLDPEQYQYFIYFKY; Description of Artificial Sequence: Cyclic peptide) [compound 147],A (0.7 or more)
15,152 (YCPENYLDPEQYQYFIYFK(COCH2)Y; thioether 2-19 (inferred)) [compound 152],A (0.7 or more)
16,175 (YCEQNYLDPEQYQYFIYFK(COCH2)Y; thioether 2-19 (inferred)) [compound 175],A (0.7 or more)
17,268 (YCEENYLDPEQYEYFIYFK(COCH2)Y; thioether 2-19) [compound 268],A (0.7 or more)
18,375 (DCLQFIYQYLYTVK(COCH2)I; thioether 2-14) [compound 375],C (0.1 or more and less than 0.5)
19,144 (QCEENYLDPEQYQYFIYFKY; Description of Artificial Sequence: Cyclic peptide) [compound 144],A (0.7 or more)
20,80 (QCPQNFINPVQWRYFQHYK(COCH2)N; thioether 2-19 (inferred)) [compound 80],A (0.7 or more)
21,56 (KCPQAFINPVQWRYFQHYK(COCH2)N; thioether 2-19 (inferred)) [compound 56],C (0.1 or more and less than 0.5)
22,287 (YCEENYLDPEQYQYFDYFK(COCH2)Y; thioether 2-19) [compound 287],A (0.7 or more)
23,192 (YCEENDLDPEQYQYFIYFK(COCH2)Y; thioether 2-19 (inferred)) [compound 192],C (0.1 or more and less than 0.5)
24,189 (YCEENNLDPEQYQYFIYFK(COCH2)Y; thioether 2-19 (inferred)) [compound 189],B (0.5 or more and less than 0.7)
25,238 (YCEENYLDPLQYQYFIYFK(COCH2)Y; thioether 2-19 (inferred)) [compound 238],A (0.7 or more)

# Second part, the molecule after the results:
row,Evaluation result of binding affinity to FGFR,Molecule
1,A (0.7 or more),346 (YCEENYLDPEQYQYFIYFK(COCH2)K; thioether 2-19) [compound 346]
2,A (0.7 or more),319 (YCEENYLDPEQYQYFIYFK(COCH2)E; thioether 2-19 (inferred)) [compound 319]
3,B (0.5 or more and less than 0.7),89 (QCPQNFINPVQWRYYQHYK(COCH2)N; thioether 2-19 (inferred)) [compound 89]
4,A (0.7 or more),226 (YCEENYLDYEQYQYFIYFK(COCH2)Y; thioether 2-19 (inferred)) [compound 226]
5,A (0.7 or more),397 (YCEENYLDPEQHQYFIYFK(COCH2)H; thioether 2-19 (inferred)) [compound 397]
6,A (0.7 or more),313 (YCEENYLDPEQYQYFIYFK(COCH2)W; thioether 2-19 (inferred)) [compound 313]
7,A (0.7 or more),198 (YCEENYYDPEQYQYFIYFK(COCH2)Y; thioether 2-19 (inferred)) [compound 198]
8,C (0.1 or more and less than 0.5),378 (QCPRQLYYLYLYLSK(COCH2)I; thioether 2-15 (inferred)) [compound 378]

# Molecular target: T2, Recombinant Human FGFR2 alpha (IIIc) Fc Chimera Protein, CF (R&D systems, 712-FR-050) (human, UniProt P21802 22-377)
# T2 construct: bought; not shown: Fc part of the chimera
# Experiment: SPR, 10 nmol/L peptide over immobilized FGFR2-Fc
# Conditions: not given
# Experimental: A CM5 sensor chip (Cytiva, 29149603) was set in Biacore-T200 (manufactured by Cytiva) which is a surface plasmon resonance device, and an HBS-EP buffer (Cytiva, BR100826) was added as a running buffer at a flow rate of 10 μL/min to equilibrate the flow channel. Next, 70 μL of a mixed aqueous solution of 0.2 mol/L 1-(3-dimethylaminopropyl)-3-ethylcarbodiimide (EDC) and 0.05 mol/L N-hydroxysuccinimide (NHS) was added to activate the sensor chip. Then, Recombinant Human FGFR2 alpha (IIIc) Fc Chimera Protein CF (R&D systems, 712-FR-050) prepared at 50 nmol/L in an Acetate 4.5 buffer (Cytiva, BR100350) was added thereto to perform immobilization at about 5000 RU. Thereafter, the blocking treatment was performed with an ethanolamine solution. In addition, in another flow channel of the same sensor chip, blocking treatment was performed immediately after activation without immobilizing FGFR.
# A cyclic peptide diluted to 10 nmol/L using HBS-EP was added to each flow channel of the FGFR-immobilized sensor chip produced above at 25° C. for 10 minutes, then HBS-EP was allowed to flow as a running buffer for 30 minutes, and the binding of the cyclic peptide to FGFR was measured. Thereafter, a regeneration treatment of removing the bound cyclic peptide was performed by repeating the flow of a regeneration liquid in which sodium chloride powder was dissolved in Glysine 1.5 (Cytiva, BR100354) to a final concentration of 0.15 mol/L for 1 minute in each flow channel twice. The binding amount of the cyclic peptide was evaluated from the difference between the measured value of Biacore-T200 in the flow channel in which FGFR was immobilized and the measured value of Biacore-T200 in the flow channel in which FGFR was not immobilated, in a case where a 10 nmol/L cyclic peptide was allowed to flow.
# T2 sequence (P21802 22-377, change not shown): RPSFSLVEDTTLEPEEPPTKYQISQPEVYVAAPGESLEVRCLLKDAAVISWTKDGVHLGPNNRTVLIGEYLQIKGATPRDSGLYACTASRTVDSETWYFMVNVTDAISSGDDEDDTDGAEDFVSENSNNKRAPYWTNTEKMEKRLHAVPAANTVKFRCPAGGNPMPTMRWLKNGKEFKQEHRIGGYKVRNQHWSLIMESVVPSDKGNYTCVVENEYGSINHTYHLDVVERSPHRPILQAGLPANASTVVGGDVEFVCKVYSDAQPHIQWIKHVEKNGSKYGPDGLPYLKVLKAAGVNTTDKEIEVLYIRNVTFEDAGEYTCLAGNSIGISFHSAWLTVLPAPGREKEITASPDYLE
row,Molecule,"binding amount (SPR, cyclic peptide molecules bound per FGFR molecule at 10 nmol/L peptide)"
1,"Q[hCys]PQNFINPVQWRYFQHYK(COCH2)NKKK (thioether 2-19 via acetyl″, chemically synthesized) [cyclic peptide SEQ ID NO: 433]",≥ 0.7 moleculesofthecyclicpeptide/onemoleculeoffgfr
2,"QK(COCH2)PQNFINPVQWRYFQHY[hCys]NKKK (thioether 2-19 via acetyl″, chemically synthesized) [cyclic peptide SEQ ID NO: 437]",≥ 0.7 moleculesofthecyclicpeptide/onemoleculeoffgfr
3,"QXPQNFINPVQWRYFQHYXNKKK (not fully specified; thioether ring (Orn(acetyl))-(Hcy), chemically synthesized) [cyclic peptide SEQ ID NO: 439]",≥ 0.7 moleculesofthecyclicpeptide/onemoleculeoffgfr
4,"QXPQNFINPVQWRYFQHYXNKKK (not fully specified; thioether ring (Dab(acetyl))-(Hcy), chemically synthesized) [cyclic peptide SEQ ID NO: 440]",≥ 0.7 moleculesofthecyclicpeptide/onemoleculeoffgfr
5,"Y[hCys]EENYLDPEQYQYFIYFK(COCH2)YKKK (thioether 2-19 via acetyl″, chemically synthesized) [cyclic peptide SEQ ID NO: 442]",≥ 0.7 moleculesofthecyclicpeptide/onemoleculeoffgfr
6,"YXEENYLDPEQYQYFIYFXYKKK (not fully specified; thioether ring (Hcy)-(Dab(acetyl)), chemically synthesized) [cyclic peptide SEQ ID NO: 444]",0.5 to 0.7 moleculesofthecyclicpeptide/onemoleculeoffgfr
7,"YXEENYLDPEQYQYFIYFXYKKK (not fully specified; thioether ring (Orn(acetyl))-(Hcy), chemically synthesized) [cyclic peptide SEQ ID NO: 447]",≥ 0.7 moleculesofthecyclicpeptide/onemoleculeoffgfr

# The next lines start with the values.
row,"binding amount (SPR, cyclic peptide molecules bound per FGFR molecule at 10 nmol/L peptide)",Molecule
1,≥ 0.7 moleculesofthecyclicpeptide/onemoleculeoffgfr,"QXPQNFINPVQWRYFQHYXNKKK (not fully specified; thioether ring (Hcy)-(Orn(acetyl)), chemically synthesized) [cyclic peptide SEQ ID NO: 434]"
2,≥ 0.7 moleculesofthecyclicpeptide/onemoleculeoffgfr,"QXPQNFINPVQWRYFQHYXNKKK (not fully specified; thioether ring (Hcy)-(Dab(acetyl)), chemically synthesized) [cyclic peptide SEQ ID NO: 435]"
3,≥ 0.7 moleculesofthecyclicpeptide/onemoleculeoffgfr,"QK(COCH2)PQNFINPVQWRYFQHY[hCys]NKKK (thioether 2-19 via acetyl″, chemically synthesized) [cyclic peptide SEQ ID NO: 438]"
4,≥ 0.7 moleculesofthecyclicpeptide/onemoleculeoffgfr,"QXPQNFINPVQWRYFQHYXNKKK (not fully specified; thioether ring (Dap(acetyl))-(Hcy), chemically synthesized) [cyclic peptide SEQ ID NO: 441]"
5,≥ 0.7 moleculesofthecyclicpeptide/onemoleculeoffgfr,"YXHENYLDPEQYQYFHYFKYKKK (thioether ring (Hcy)-(K(acetyl)), chemically synthesized) [cyclic peptide SEQ ID NO: 452]"
6,≥ 0.7 moleculesofthecyclicpeptide/onemoleculeoffgfr,"YXEENYLDPEQYQYFIYFXYKKK (not fully specified; thioether ring (Hcy)-(Orn(acetyl)), chemically synthesized) [cyclic peptide SEQ ID NO: 443]"
7,≥ 0.7 moleculesofthecyclicpeptide/onemoleculeoffgfr,"YKEENYLDPEQYQYFIYFXYKKK (thioether ring (K(acetyl))-(Hcy), chemically synthesized) [cyclic peptide SEQ ID NO: 446]"
